Test results published in patent publication US20080004215.

How the values were obtained:
[1] = target: WGMDY1 (WGMDY1 fused to a 10-mer cell-penetrating peptide sequence of HIV tat-1 protein, unphosphorylated form)
[2] = target: pWGMDY1 (WGMDY1 fused to a 10-mer cell-penetrating peptide sequence of HIV tat-1 protein, phosphorylated form)

B1: purified glutathione S-transferase (GST) fusion of the phosphatase domain of SHP2 (protein)
chain: GFWEEFETLQQQECKLLYSRKEGQRQENKNKNRYKNILPFDHTRVVLHDGDPNEPVSDYINANIIMPEFETKCNNSKPKKSYIATQGCLQNTVNDFWRMVFQENSRVIVMTTKEVERGKSKCVKYWPDEYALKEYGVMRVRNVKESAAHDYTLRELKLSKVGQGNTERTVWQYHFRTWPDHGVPSDPGGVLDFLEEVHHKQESIMDAGPVVVHCSAGIGRTGTFIVIDILIDIIREKGVDCDIDVPKTIQMVRSQRSGMVQTEAQYRFIYMAVQHYIETLQRRIEEEQKSKRKGHEYTNIKYSLADQTSGDQSPLPPCTPTPPCAEMREDSARVYENVGLMQQQKSFR
[1]
  in vitro phosphatase assay: dephosphorylation of para-nitrophenolphosphate (pN) by P, absorbance (OD) at 405 nm at the 5 minutes time point: Addition of pWGMDY1, but not WGMDY1, inhibited the dephosphorylation reaction
[2]
  in vitro phosphatase assay: dephosphorylation of para-nitrophenolphosphate (pN) by P, absorbance (OD) at 405 nm at the 5 minutes time point: Addition of pWGMDY1, but not WGMDY1, inhibited the dephosphorylation reaction
